Data: the supplement of paper PMC9170038

System: MS2 coat protein
Experiment: apparent KD of MS2 coat protein; designed switch direction (-1 OFF switch, 1 ON switch): -1; higher = weaker reporter binding
How it was run: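 Designed RNA switches sharing common flanks were transcribed on Illumina chips by stalled E. coli RNA polymerase. They were titrated with SNAP-549-labelled MS2 coat protein, from 0.7 or 1.5 nM doubling to 3 µM, in Tris-HCl pH 7.5 buffer with KCl, MgCl2, BSA, DTT, tRNA and Tween-20. Titrations ran without input, with 200 uM small-molecule ligand, or with an oligonucleotide input. The apparent KD of each design is the median over its clusters, after curve-fitting of normalised cluster fluorescence.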

[1] = Eterna round: R95, input ligand: FMN 200 uM
[2] = Eterna round: R95, input ligand: microRNA oligo, concentration not stated
[3] = Eterna round: R95, input ligand: none
[4] = input ligand: microRNA oligo, concentration not stated

| Sequence | apparent KD of MS2 coat protein [1] [nM] | apparent KD of MS2 coat protein [2] [nM] | apparent KD of MS2 coat protein [3] [nM] | apparent KD of MS2 coat protein (input ligand: FMN 200 uM) [nM] | apparent KD of MS2 coat protein [4] [nM] | apparent KD of MS2 coat protein (input ligand: none) [nM] |
| --- | --- | --- | --- | --- | --- | --- |
| UAGAUGGCUCAGGAUAUUUGCCAACUAACCCGCAAAGAAGGGAGCACAUGAGGAUCACCCAUGUGAUCGAACAA [Xeortibeza] (puzzle: Exclusion 6) | 114 | 22.6 | 26.1 |  |  |  |
| GCGGAGUAUGUAGGAUAUCGGUCAGUUUCUGAUCGAGAAGGACAUGAGGAUCACCCAUGUAAAUUGCCCGCUUUGUGGGUCCGC [JL ENG1 3.61] (Eterna round: R96, puzzle: Exclusion NG 1) |  |  |  | 36.5 | 13.2 | 17.8 |
| AAUAAUUUUUUUUUUUUACAAGCUUUUUGCUCGUCUUAUACAUGAGGAUCACCCAUGUGGGUGAAAGAUAGAUUGUC [JMF's solution 1] (puzzle: Sensor v3, turn-off variant 2) | 30.6 | 18.2 | 44.8 |  |  |  |
| GUGAGGGAGUGAGGAUAUCAGGGAGAUAAGAAAUGAGAAGGUACAUGAGGAUCACCCAUGUAAGAGUAGGGAAGAGAGAAGAGU [Default title] (Eterna round: R96, puzzle: Exclusion NG 1) |  |  |  | 69.3 | 31.6 | 66.7 |
| ACUUACUGAGGAUAUACUUAGAUUUACAUGAGGAUCACCCAUGUUCCUCUAUGUAUAUAUGUAGAAGGCAGAAGAA [JL-ex5-4.35 Malcolm mod] (Eterna round: R97, puzzle: Exclusion 5) |  |  |  | 120 |  | 23.7 |
| AAACCUGCCCAUGACCGCAAGCUUUUCGCUUGUCUUACCACAUGAGGAUCACCCAUGUGACAUGGGCUCCUUAUAAA [Usorle] (puzzle: Sensor v3, turn-off variant 2) | 14 | 11.8 | 11.4 |  |  |  |
| GAGUUACAUGAGGAUCACCCAUGUGAGGAUAUGAGUCAGUCACGGUGACGUGGCUGACUCAGAAGGCACAAAGG [Mat - Exclusion 1 - JL Mod - D37] (Eterna round: R97, puzzle: Exclusion 1) |  |  |  | 186 |  | 83.8 |
| AAGUUACAUGAGGAUCACCCAUGUGAGGAUAUGAGUCAGUCACGGUGACGUGGCUGACUCAGAAGGCACAUAGG [JL-ex1-4.42 salish99 mod] (Eterna round: R97, puzzle: Exclusion 1) |  |  |  | 256 |  | 77.1 |
| AGCUGUGGCCGAGGAUAUCUAAUAUCCCUAACCGAAAUAUAAUCGGACAUGAGGAUCACCCAUGUAGAGAAGGCGGUCUCAGCA [Eli eng2 - 065] (Eterna round: R96, puzzle: Exclusion NG 2) |  |  |  | 211 | 19.3 | 20.8 |
| UUUAAUUUUUUUUUUUUACAAGCUUUUUGCUCGUCUUAUACAUGAGGAUCACCCAUGUGGGUGAGGGAUAAAUUAUC [JMF 42] (puzzle: Sensor v3, turn-off variant 2) | 16.3 | 27.2 | 574 |  |  |  |
| GGGUAGUGAGGAUAUCGUUGUUAGGAGGAGUAGGUAGGAGGCGAGAAGGCACAUGAGGAUCACCCAUGUAUGAA [JR_Exclu4_Sub066] (Eterna round: R96, puzzle: Exclusion 4) |  |  |  | 34.9 | 26.2 | 32 |
| CGCCUGGGAGGAUAUCCAAUAUAUGACAUGAGGAUCACCCAUGUUUCCACUCGUACCUCCGGAGAAGGCCCGGCGC [Ex5 #30] (Eterna round: R97, puzzle: Exclusion 5) |  |  |  | 23.1 |  | 25.2 |
| CUAUUGCGAGGAUAUGAUUUAAAUAACAUGAGGAUCACCCAUGUUUUUACGUUGUUAUGUUCAGAAGGCGUAUUGU [JR_E5_Sub024] (puzzle: Exclusion 5) |  | 41.4 |  |  |  |  |
| CCGUACGGAGGAUAUACAUGAGGAUCACCCAUGUGUCCGCGCGUGGGAACACGUAAUAGUAGAAGGCCGUCCGG [jl-ex3-4.78 Brourd automod] (Eterna round: R97, puzzle: Exclusion 3) |  |  |  | 491 |  | 59.4 |
| UCUCGAUGGCAAGGAUAUCCUACAUUGUUCUGGCCCGGGCAUGCUACAUGAGGAUCACCCAUGUGGGAGAAGGUGCGCCACUGC [Design 26] (Eterna round: R96, puzzle: Exclusion NG 2) |  |  |  | 118 | 55 | 93.3 |
| AUCGUGUGAGGAUAUCGAUGUUGGACGUCUAGGUCUGAGCGCGAGAAGGCACAUGAGGAUCACCCAUGUAAGGG [jl-ex4-4.24 ViennaUCT mod] (Eterna round: R97, puzzle: Exclusion 4) |  |  |  | 220 |  | 896 |
| UUGGUUGUGGUAGGAUAUCCGUUGGAAACCGUCGGAGAAGGACCACAGUCACUGGGUCUUUGUCUGGUGGAGUGGAAGAACCAU [pwkr exNG1 F6.20] (Eterna round: R96, puzzle: Exclusion NG 1) |  |  |  | 283 | 157 | 218 |

| Sequence | apparent KD of MS2 coat protein [1] [nM] | apparent KD of MS2 coat protein [2] [nM] | apparent KD of MS2 coat protein [3] [nM] | apparent KD of MS2 coat protein (input ligand: FMN 200 uM) [nM] | apparent KD of MS2 coat protein [4] [nM] | apparent KD of MS2 coat protein (input ligand: none) [nM] |
| --- | --- | --- | --- | --- | --- | --- |
| CUGAGCAGACGGAGAUCCAACAUGAGGAUCACCCAUGUCUCAAAAGCUCUUUGCUCGUCUUAUCCUCCUCUGUUCUC [Leriedor] (puzzle: Sensor v3, turn-off variant 1) | 31.5 | 333 | 30.1 |  |  |  |
| CUUCUCAAAGGAUAUCACGGUAAUAACAUGAGGAUCACCCAUGUGCAAUUCGUGUCCCUGUGAGAAGGUUGAGAAG [Remaor] (puzzle: Exclusion 5) |  | 10.5 |  |  |  |  |
| AUUGAUAUUGAGGAUAUGCUUUUAUUUGAACAAGCAGAAGGCGAUACAUGAGGAUCACCCAUGUUUAUGGAAGU [JR_E6_Sub087] (puzzle: Exclusion 6) | 51.6 | 37.6 | 49.4 |  |  |  |
| UGAUCAGACCGAGGAUAUAUAUGGAGGACCCACGUGAGUGGGUCCACUACAUGAGGAUCACCCAUGUAGAAGGCGGUCUGAUCU [JL ENG2 1.86] (Eterna round: R96, puzzle: Exclusion NG 2) |  |  |  | 29.5 | 9.64 | 13.3 |
| GGUGAGAGCAAGGAUAUGCAGAAGAGAGAAAGAGCAGAAGGUGCUACAUGAGGAUCACCCAUGUUGGAUGUGUU [JR_E6_Sub014] (puzzle: Exclusion 6) | 46.3 | 35.6 | 39.3 |  |  |  |
| AUAAAGCAGUCAGGAUAUAUGAGAGGUCGUUUCAUAGAAGGGACAGCUCGUGCGUGGCUGACAUGAGGAUCACCCAUGUACGUU [Enrizala] (Eterna round: R96, puzzle: Exclusion NG 1) |  |  |  | 229 | 39.1 | 37.6 |
| AGUGUGUGGCAGGAUAUUCUGUUGAUUAGGACAGAAGAAGGGUCUACAUGAGGAUCACCCAUGUAAGCGGUUGA [Ex6 #36] (Eterna round: R97, puzzle: Exclusion 6) |  |  |  | 275 |  | 268 |
| AAACAAGCUCGGGUGAGGGAGACCACAGAAGGACCCAAAACAUGAGGAUCACCCAUGUCAAGAGUAGAGCUUGGCAU [high scoring solution 31] (Eterna round: R96, puzzle: Sensor v2, turn-off variant 2) |  |  |  | 71 | 57.4 | 75.4 |
| AGUAACAGAGGAUAUACUGUUUUAUGUGUUUGUUAUUUUGAACAUGAGGAUCACCCAUGUAGAAGGCUGAAUAA [JMF 92] (puzzle: Exclusion 2) |  | 20 |  |  |  |  |
| ACGGGUAAGUAAGGAUAUCCAACAGGCUGAAUUCAACCUGAACAUGAGGAUCACCCAUGUGGGUGGGAGAAGGUACUCUCCCGC [Diladiaen] (Eterna round: R96, puzzle: Exclusion NG 2) |  |  |  | 86.5 | 65.5 | 93.7 |
| GGUGGACAUGAGGAUCACCCAUGUGAGGAUAUCGGCCGGCUAGUGGCGGCUGGCUUCUCGAGAAGGCGCAUAGU [Exclusion 1 V77] (puzzle: Exclusion 1) |  | 37.3 |  |  |  |  |
| CUGCUGGAGCGGCGCUUUGGUCGUACAUGAGGAUCACCCAUGUAGGAUAUGGUAAAAUUCGCCUGCUAGAAGGAUAGAGUGGUC [salish99_ExNG3_r04_617] (Eterna round: R96, puzzle: Exclusion NG 3) |  |  |  | 135 | 62.5 | 88.1 |
| AUGCGUGGCUAGGAUAUUGAGGAAUUUAGUCAGCGAGAAGGAGCCACAUGAGGAUCACCCAUGUGGUGAAGCUC [jl-ex6-4.59 ViennaUCT mod] (Eterna round: R97, puzzle: Exclusion 6) |  |  |  | 70.5 |  | 19.1 |
| CUGAGCAGACGGAAAUCCAACAUGAGGAUCACCCAUGUCUCAAAAGCUUUUUGCUUGUCUUAUUCUCCUCUGUUCUC [Edtile] (puzzle: Sensor v3, turn-off variant 1) | 13.8 | 71.2 | 12.9 |  |  |  |
| AUUGUUUAUGUAGGAUAUGCCUGGCGUGCCUUCGCAGAAGGACAUGAGGAUCACCCAUGUAUUGCGGUCUGCGUUCAGAUCGCA [salish99_ExNG1_r4_024] (Eterna round: R96, puzzle: Exclusion NG 1) |  |  |  |  | 45.2 |  |
| ACAUGAGGAUCACCCAUGUCAGGCUGGUCCGCUCCGGCUGUUGAGGAUAUAGCACGGUAUCCGCGCUAGAAGGUGAGGGCCGGC [Aenatbe mod 30] (Eterna round: R96, puzzle: Exclusion NG 3) |  |  |  | 21.6 | 18 | 22.5 |
